{"source": "paper PMC6042154", "about": "(Proceedings of the National Academy of Sciences of the …, 2018)", "proteins": {"B1": {"name": "outer membrane porin F (OmpF) (natural protein)", "chain": "AEIYNKDGNKVDLYGKAVGLHYFSKGNGENSYGGNGDMTYARLGFKGETQINSDLTGYGQWEYNFQGNNSEGADAQTGNKTRLAFAGLKYADVGSFDYGRNYGVVYDALGYTDMLPEFGGDTAYSDDFFVGRVGGVATYRNSNFFGLVDGLNFAVQYLGKNERDTARRSNGDGVGGSISYEYEGFGIVGAYGAADRTNLQEAQPLGNGKKAEQWATGLKYDANNIYLAANYGETRNATPITNKFTNTSGFANKTQDVLLVAQYQFDFGLRPSIAYTKSKAKDVEGIGDVDLVNYFEVGATYYFNKNMSTYVDYIINQIDSDNKLGVGSDDTVAVGIVYQF"}}, "target": "the molecule itself", "test": "native MS"}
{"protein": "B1", "values": [{"measurement": "stoichiometry N", "result": 3}]}
